Reference: patent publication US6107069A, “Recombinant kynurenine-3-hydroxylase enzyme and process for its preparation” (priority 1996, dated 2000)

Legend:
[1] = Activity of recombinant kyn-3-OHase expressed in E. coli (conversion of L-kyn to 3-OH-Kyn); format: biochemical, human; details: cells induced 2 h at 37° C. with 1 mM IPTG; 500 μM L-kyn, 1 hour at 37° C.
Protocol: Recombinant kyn-3-OHase activity measured in cells grown at 37° C. until the OD600 reached 0.6, induced for 2 hours at 37° C. adding 1 mM IPTG was about 10 nmol/h·mg protein, enzymatic activity of uninduced cells in the same conditions was less than 5% (homogenates incubated for 1 hour at 37° C. with 500 μM L-kyn; see Example 5c).

[2] = Rat kyn-3-OHase activity expressed in X. laevis oocytes (conversion of L-kyn to 3-OH-Kyn); format: biochemical
Protocol: Individual oocytes of stages were obtained by gentle agitation in ND solution plus 1-2mg/ml collagenase for 60-90 min. They were then maintained at 18° C. in ND solution enriched with 1.8 mM CaCl2 and 20 mg/l gentamycin. Oocytes of stages 5 and 6 were injected 24 hours later with 50 nl RNA or water (N. Dascal and I. Lotan 1992. Methods in Mol. Biol. 13: 205-225).
Oocytes were injected with a Drummond Nanoject microdispenser. To avoid accidental injection into the nucleus, the needle was inserted close to the equator or in the vegetal (light) half of the oocytes. 1-3 days after injection the oocytes were assayed for kyn-3-OHase.
Plasmid DNA was isolated by standard procedures (alkaline lysis followed by a purification on Qiagen resin; Kontron Zurich). Plasmids were linearized with Not I and used for in vitro synthesis and capping of cRNA using T7 RNA polymerase (Stratagene) and following the supplier's instructions. Initially the library was divided into 25 pools of ~2000 colonies; cRNA obtained transcribing the insert of each pool of colonies was injected in the oocytes and screened for the expressed kyn-3-Ohase activity (See Example 1c for the methods). The positive pool identified for its kyn-3-OHase expressed activity (175 pmoles/h/mg protein: about 30 fold higher than that induced by the injection of total kidney poly (A)^+ RNA) was then split into several sub-pools and assayed with the same procedure.
Xenopus l. oocytes were first injected with 25 ng of poly(A)^+ RNA isolated from rat kidney.
Increasing doses (range 0.1-25 ng) of cRNA, obtained from the positive clone, were injected into oocytes which were then tested for kyn-3-OHase activity in the presence of 100 mM of L-kyn. A linear dose-dependent effect was observed up to 5 ng cRNA/oocyte. At this dose the kyn-3-OHase activity was 35.7 nmoles/h/mg protein. No further increase of the activity was measured when higher cRNA doses were injected.

[3] = 5 steps purification from rat liver (Nisimoto 1975); cited from earlier work
[4] = purified from rat liver (Nisimoto 1975); cited from earlier work
[5] = last round of library screening, cRNA-injected oocytes

B1: Recombinant kyn-3-OHase: human kynurenine-3-hydroxylase, deduced protein of 486 amino acid residues, expressed in E. coli (protein, UniProt O15229 1-486, looked up)
Kynurenine 3-monooxygenase: MDSSVIQRKKVAVIGGGLVGSLQACFLAKRNFQIDVYEAREDTRVATFTRGRSINLALSHRGRQALKAVGLEDQIVSQGIPMRARMIHSLSGKKSAIPYGTKSQYILSVSRENLNKDLLTAAEKYPNVKMHFNHRLLKCNPEEGMITVLGSDKVPKDVTCDLIVGCDGAYSTVRSHLMKKPRFDYSQQYIPHGYMELTIPPKNGDYAMEPNYLHIWPRNTFMMIALPNMNKSFTCTLFMPFEEFEKLLTSNDVVDFFQKYFPDAIPLIGEKLLVQDFFLLPAQPMISVKCSSFHFKSHCVLLGDAAHAIVPFFGQGMNAGFEDCLVFDELMDKFSNDLSLCLPVFSRLRIPDDHAISDLSMYNYIEMRAHVNSSWFIFQKNMERFLHAIMPSTFIPLYTMVTFSRIRYHEAVQRWHWQKKVINKGLFFLGSLIAISSTYLLIHYMSPRSFLRLRRPWNWIAHFRNTTCFPAKAVDSLEQISNLISR
- Recombinant kyn-3-OHase activity [1]: about 10 nmol/h·mg protein

B2: positive clone: cDNA clone encoding rat kyn-3-OHase, a deduced protein of 478 amino acid residues, expressed in Xenopus oocytes (protein)
chain: MASSDTEGKRVVVIGGGLVGALNACFLAKRNFQVDVYEAREDIRVANFMRGRSINLALSYRGRQALKAVGLEDQIVSKGVPMKARMIHSLSGKKSAIPYGNKSQYILSISREKLNKDLLTAVESYPNAKVHFGHKLSKCCPEEGILTMLGPNKVPRDITCDLIVGCDGAYSTVRAHLMKKPRFDYSQQYIPHGYMELTIPPKNGEYAMEPNCLHIWPRNAFMMIALPNMDKSFTCTLFMSFEEFEKLPTHSDVLDFFQKNFPDAIPLMGEQALMRDFFLLPAQPMISVKCSPFHLKSRCVLMGDAAHAIVPFFGQGMNAGFEDCLVFDELMDKFNNDLSVCLPEFSRFRIPDDHAISDLSMYNYIEMRAHVNSRWFLFQRLLDKFLHALMPSTFIPLYTMVAFTRIRYHEAVLRWHWQKKVINRGLFVLGSLVAIGSAYILVHHLSPRPLELLRSAWTGTSGHWNRSADISPRVPWSH
- kyn-3-OHase activity, cRNA dose-response ([2]; 5 ng cRNA/oocyte, 100 mM of L-kyn): 35.7 nmoles/h/mg protein
- activity vs that induced by injection of total rat kidney poly(A)+ RNA [2, 5]: about 400 fold
- kyn-3-OHase activity, single positive clone [2, 5]: 3747 pmoles/h/mg protein

B3: kyn-3-OHase: kyn-3-OHase isolated from the mitochondrial outer membrane of rat liver, molecular weight of 200,000 Da (protein)
chain: B2 chain
- specific activity of purified enzyme [3]: 140 nmol/min/mg
- isoelectric point [4]: 5.4 pH
